From the supplement of paper PMC5998384 come the findings set out here.

Data set [1] concerns HeLa Kyoto. Nature of the data set: solubility in G1/S (NP-40 vs SDS abundance) (log2 ratio); higher = more soluble. The following applies: cell cycle stage: G1/S.
For data set [2], the system named is HeLa Kyoto. The data set can be described thus: melting temperature (median over replicates), in situ; higher = more thermally stable.
Data set [3] concerns HeLa Kyoto. The data set can be described thus: solubility change mitosis vs G1/S (difference of NP-40 vs SDS log2 ratios) (log2 ratio difference); higher = more soluble in mitosis.
Data set [4] deals with HeLa Kyoto. Nature of the data set: thermal stability score vs G1/S (z-score of summed log2 fold changes over temperatures); higher = more thermally stable than in G1/S.
[5] abbreviates: cell cycle stage: early G1 (4.5 h after nocodazole release).
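Wherever melting temperature (median over replicates), in situ is given: HeLa Kyoto cells synchronized by double thymidine or nocodazole block, proteins quantified by TMT10plex mass spectrometry, three independent biological replicates.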
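Wherever solubility change mitosis vs G1/S (difference of NP-40 vs SDS log2 ratios) is given: synchronized HeLa Kyoto cells (double thymidine block for G1/S, nocodazole release for mitosis), protein amounts in NP-40 versus SDS lysates quantified by mass spectrometry, three biological replicates.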
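Wherever solubility in G1/S (NP-40 vs SDS abundance) is given: HeLa Kyoto cells arrested at G1/S by double thymidine block, proteins quantified by TMT10plex mass spectrometry in mild NP-40 versus SDS extracts, three biological replicates.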
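Wherever thermal stability score vs G1/S (z-score of summed log2 fold changes over temperatures) is given: synchronized HeLa Kyoto cells, proteins quantified by TMT10plex mass spectrometry, three biological replicates, mitosis taken 0.5 h after nocodazole release, G1/S directly after double thymidine block.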

Regarding “MNEAMATDSPRRPSRCTGGVVVRPQAVTEQSYMESVVTFLQDVVPQAYSGTPLTEEKEKIVWVRFENADLNDTSRNLEFHEIHSTGNEPPLLIMIGYSDGMQVWSIPISGEAQELFSVRHGPIRAARILPAPQFGAQKCDNFAEKRPLLGVCKSIGSSGTSPPYCCVDLYSLRTGEMVKSIQFKTPIYDLHCNKRILVVVLQEKIAAFDSCTFTKKFFVTSCYPCPGPNMNPIALGSRWLAYAENKLIRCHQSRGGACGDNIQSYTATVISAAKTLKSGLTMVGKVVTQLTGTLPSGVTEDDVAIHSNSRRSPLVPGIITVIDTETVGEGQVLVSEDSDSDGIVAHFPAHEKPVCCMAFNTSGMLLVTTDTLGHDFHVFQILTHPWSSSQCAVHHLYTLHRGETEAKVQDICFSHDCRWVVVSTLRGTSHVFPINPYGGQPCVRTHMSPRVVNRMSRFQKSAGLEEIEQELTSKQGGRCSPVPGLSSSPSGSPLHGKLNSQDSYNNFTNNNPGNPRLSPLPSLMVVMPLAQIKQPMTLGTITKRTGPYLFGAGCFSIKAPCKVKPPPQISPSKSMGGEFCVAAIFGTSRSWFANNAGLKREKDQSKQVVVESLYIISCYGTLVEHMMEPRPLSTAPKISDDTPLEMMTSPRASWTLVRTPQWNELQPPFNANHPLLLAADAVQYYQFLLAGLVPPGSPGPITRHGSYDSLASDHSGQEDEEWLSQVEIVTHTGPHRRLWMGPQFQFKTIHPSGQTTVISSSSSVLQSHGPSDTPQPLLDFDTDDLDLNSLRIQPVRSDPVSMPGSSRPVSDRRGVSTVIDAASGTFDRSVTLLEVCGSWPEGFGLRHMSSMEHTEEGLRERLADAMAESPSRDVVGSGTELQREGSIETLSNSSGSTSGSIPRNFDGYRSPLPTNESQPLSLFPTGFP [BCAS3]”, the “solubility in G1/S (log2)” value in data set [1] is -0.0403. The melting temperature in data set [2] (cell cycle stage: G1/S) was determined as 52.9 °C; in data set [2] (cell cycle stage: mitosis), 52.2 °C. In addition, the “solubility change mitosis (log2)” value in data set [3] is -0.229. Moreover, the thermal stability score in data set [4] (setting [5]) is -0.731; in data set [4] (cell cycle stage: mitosis), -1.02.
For “MNEEYDVIVLGTGLTECILSGIMSVNGKKVLHMDRNPYYGGESASITPLEDLYKRFKIPGSPPESMGRGRDWNVDLIPKFLMANGQLVKMLLYTEVTRYLDFKVTEGSFVYKGGKIYKVPSTEAEALASSLMGLFEKRRFRKFLVYVANFDEKDPRTFEGIDPKKTTMRDVYKKFDLGQDVIDFTGHALALYRTDDYLDQPCYETINRIKLYSESLARYGKSPYLYPLYGLGELPQGFARLSAIYGGTYMLNKPIEEIIVQNGKVIGVKSEGEIARCKQLICDPSYVKDRVEKVGQVIRVICILSHPIKNTNDANSCQIIIPQNQVNRKSDIYVCMISFAHNVAAQGKYIAIVSTTVETKEPEKEIRPALELLEPIEQKFVSISDLLVPKDLGTESQIFISRTYDATTHFETTCDDIKNIYKRMTGSEFDFEEMKRKKNDIYGED [GDI2]”, the “solubility in G1/S (log2)” value in data set [1] was 0.218. Further, the melting temperature in data set [2] (cell cycle stage: G1/S) was 55.2 °C; in data set [2] (cell cycle stage: mitosis) it was 54.7 °C. Moreover, the “solubility change mitosis (log2)” value in data set [3] is -0.174. The thermal stability score in data set [4] (setting [5]) was -1.03; in data set [4] (cell cycle stage: mitosis) it was -0.13.
Regarding “MNFLRGVMGGQSAGPQHTEAETIQKLCDRVASSTLLDDRRNAVRALKSLSKKYRLEVGIQAMEHLIHVLQTDRSDSEIIGYALDTLYNIISNEEEEEVEENSTRQSEDLGSQFTEIFIKQQENVTLLLSLLEEFDFHVRWPGVKLLTSLLKQLGPQVQQIILVSPMGVSRLMDLLADSREVIRNDGVLLLQALTRSNGAIQKIVAFENAFERLLDIISEEGNSDGGIVVEDCLILLQNLLKNNNSNQNFFKEGSYIQRMKPWFEVGDENSGWSAQKVTNLHLMLQLVRVLVSPTNPPGATSSCQKAMFQCGLLQQLCTILMATGVPADILTETINTVSEVIRGCQVNQDYFASVNAPSNPPRPAIVVLLMSMVNERQPFVLRCAVLYCFQCFLYKNQKGQGEIVSTLLPSTIDATGNSVSAGQLLCGGLFSTDSLSNWCAAVALAHALQENATQKEQLLRVQLATSIGNPPVSLLQQCTNILSQGSKIQTRVGLLMLLCTWLSNCPIAVTHFLHNSANVPFLTGQIAENLGEEEQLVQGLCALLLGISIYFNDNSLESYMKEKLKQLIEKRIGKENFIEKLGFISKHELYSRASQKPQPNFPSPEYMIFDHEFTKLVKELEGVITKAIYKSSEEDKKEEEVKKTLEQHDNIVTHYKNMIREQDLQLEELRQQVSTLKCQNEQLQTAVTQQVSQIQQHKDQYNLLKIQLGKDNQHQGSYSEGAQMNGIQPEEIGRLREEIEELKRNQELLQSQLTEKDSMIENMKSSQTSGTNEQSSAIVSARDSEQVAELKQELATLKSQLNSQSVEITKLQTEKQELLQKTEAFAKSVEVQGETETIIATKTTDVEGRLSALLQETKELKNEIKALSEERTAIKEQLDSSNSTIAILQTEKDKLELEITDSKKEQDDLLVLLADQDQKILSLKNKLKDLGHPVEEEDELESGDQEDEDDESEDPGKDLDHI [USO1]”, in data set [1], the “solubility in G1/S (log2)” value was 0.289. Moreover, the melting temperature was found to be 51.2 °C in data set [2] (cell cycle stage: G1/S) and 50.6 °C in data set [2] (cell cycle stage: mitosis). For the same sequence, in data set [3], the “solubility change mitosis (log2)” value is -0.0652. In addition, the thermal stability score in data set [4] (setting [5]) is 2.79; in data set [4] (cell cycle stage: mitosis), 1.73.
Take “MNFRQLLLHLPRYLGASGSPRRLWWSPSLDTISSVGSWRGRSSKSPAHWNQVVSEAEKIVGYPTSFMSLRCLLSDELSNIAMQVRKLVGTQHPLLTTARGLVHDSWNSLQLRGLVVLLISKAAGPSSVNTSCQNYDMVSGIYSCQRSLAEITELIHIALLVHRGIVNLNELQSSDGPLKDMQFGNKIAILSGDFLLANACNGLALLQNTKVVELLASALMDLVQGVYHENSTSKESYITDDIGISTWKEQTFLSHGALLAKSCQAAMELAKHDAEVQNMAFQYGKHMAMSHKINSDVQPFIKEKTSDSMTFNLNSAPVVLHQEFLGRDLWIKQIGEAQEKGRLDYAKLRERIKAGKGVTSAIDLCRYHGNKALEALESFPPSEARSALENIVFAVTRFS [PDSS2]”: the “solubility in G1/S (log2)” value in data set [1] was found to be 0.217. The melting temperature amounted to 53.5 °C in data set [2] (cell cycle stage: G1/S) and 54.1 °C in data set [2] (cell cycle stage: mitosis). Moreover, in data set [3], the “solubility change mitosis (log2)” value came to 0.169. The thermal stability score in data set [4] (setting [5]) was 0.42; in data set [4] (cell cycle stage: mitosis), -0.202.
For the sequence “MNIMNTEQSQNSIVSRIKVFEGQTNIETSGLPKKPEITPRSLPPKPTVSSGKPSVAPKPAANRASGEWDSGTENRLKVTSKEGLTPYPPLQEAGSIPVTKPELPKKPNPGLIRSVNPEIPGRGPLAESSDSGKKVPTPAPRPLLLKKSVSSENPTYPSAPLKPVTVPPRLAGASQAKAYKSLGEGPPANPPVPVLQSKPLVDIDLISFDDDVLPTPSGNLAEESVGSEMVLDPFQLPAKTEPIKERAVQPAPTRKPTVIRIPAKPGKCLHEDPQSPPPLPAEKPIGNTFSTVSGKLSNVERTRNLESNHPGQTGGFVRVPPRLPPRPVNGKTIPTQQPPTKVPPERPPPPKLSATRRSNKKLPFNRSSSDMDLQKKQSNLATGLSKAKSQVFKNQDPVLPPRPKPGHPLYSKYMLSVPHGIANEDIVSQNPGELSCKRGDVLVMLKQTENNYLECQKGEDTGRVHLSQMKIITPLDEHLRSRPNDPSHAQKPVDSGAPHAVVLHDFPAEQVDDLNLTSGEIVYLLEKIDTDWYRGNCRNQIGIFPANYVKVIIDIPEGGNGKRECVSSHCVKGSRCVARFEYIGEQKDELSFSEGEIIILKEYVNEEWARGEVRGRTGIFPLNFVEPVEDYPTSGANVLSTKVPLKTKKEDSGSNSQVNSLPAEWCEALHSFTAETSDDLSFKRGDRIQILERLDSDWCRGRLQDREGIFPAVFVRPCPAEAKSMLAIVPKGRKAKALYDFRGENEDELSFKAGDIITELESVDDDWMSGELMGKSGIFPKNYIQFLQIS [SH3D19]”, in data set [1], the “solubility in G1/S (log2)” value turned out to be 0.173. Also, the melting temperature in data set [2] (cell cycle stage: mitosis) is 49 °C. Also, the “solubility change mitosis (log2)” value in data set [3] was -0.127. Besides, the thermal stability score in data set [4] (setting [5]) was 0.0615; in data set [4] (cell cycle stage: mitosis), -0.175.
“MNNQKQQKPTLSGQRFKTRKRDEKERFDPTQFQDCIIQGLTETGTDLEAVAKFLDASGAKLDYRRYAETLFDILVAGGMLAPGGTLADDMMRTDVCVFAAQEDLETMQAFAQVFNKLIRRYKYLEKGFEDEVKKLLLFLKGFSESERNKLAMLTGVLLANGTLNASILNSLYNENLVKEGVSAAFAVKLFKSWINEKDINAVAASLRKVSMDNRLMELFPANKQSVEHFTKYFTEAGLKELSEYVRNQQTIGARKELQKELQEQMSRGDPFKDIILYVKEEMKKNNIPEPVVIGIVWSSVMSTVEWNKKEELVAEQAIKHLKQYSPLLAAFTTQGQSELTLLLKIQEYCYDNIHFMKAFQKIVVLFYKAEVLSEEPILKWYKDAHVAKGKSVFLEQMKKFVEWLKNAEEESESEAEEGD [BZW1]”: in data set [1], the “solubility in G1/S (log2)” value turned out to be 0.625. The figures for the melting temperature in data set [2] (cell cycle stage: G1/S) and in data set [2] (cell cycle stage: mitosis) were 49.3 °C and 48.8 °C, respectively. In addition, the “solubility change mitosis (log2)” value in data set [3] was -0.105. Also, the thermal stability score in data set [4] (setting [5]) amounted to 2.93; in data set [4] (cell cycle stage: mitosis), 6.17.
As to “MNNSGADEIGKLFVGGLDWSTTQETLRSYFSQYGEVVDCVIMKDKTTNQSRGFGFVKFKDPNCVGTVLASRPHTLDGRNIDPKPCTPRGMQPERTRPKEGWQKGPRSDNSKSNKIFVGGIPHNCGETELREYFKKFGVVTEVVMIYDAEKQRPRGFGFITFEDEQSVDQAVNMHFHDIMGKKVEVKRAEPRDSKSQAPGQPGASQWGSRVVPNAANGWAGQPPPTWQQGYGPQGMWVPAGQAIGGYGPPPAGRGAPPPPPPFTSYIVSTPPGGFPPPQGFPQGYGAPPQFSFGYGPPPPPPDQFAPPGVPPPPATPGAAPLAFPPPPSQAAPDMSKPPTAQPDFPYGQYAGYGQDLSGFGQGFSDPSQQPPSYGGPSVPGSGGPPAGGSGFGRGQNHNVQGFHPYRR [DAZAP1]”, the “solubility in G1/S (log2)” value in data set [1] turned out to be 0.412. For the same sequence, the figures for the melting temperature in data set [2] (cell cycle stage: G1/S) and in data set [2] (cell cycle stage: mitosis) were 53.6 °C and 53.7 °C, respectively. Further, in data set [3], the “solubility change mitosis (log2)” value was -0.0921. Also, the thermal stability score in data set [4] (setting [5]) was -1.35; in data set [4] (cell cycle stage: mitosis), -1.24.
